Measurements: article PMC11208158, “Structural mechanism of bridge RNA-guided recombination”

Legend:
IS621 recombinase [1] = target: T1, IS621 recombinase (Escherichia coli, UniProt A0A0E0Y1P1 1-326); test: MST; 5 mM Mg2+; MST: 20 nM labelled IS621, RNA 0.076-250 nM, 37 C; labelled protein eluted in 20 mM Tris-HCl pH 7.5, 500 mM NaCl, 5 mM MgCl2, 1 mM DTT, 0.01% Tween 20; details: protein: recombinant; tags: N-terminal His8, Twin-Strep, HRV 3C site (tag removal not described); chain copies: 4; 5' stem loop, TBL and DBL
IS621 recombinase [2] = target: T1, IS621 recombinase; test: cryo-EM; initial synaptic complex; MST: 20 nM labelled IS621, RNA 0.076-250 nM, 37 C; labelled protein eluted in 20 mM Tris-HCl pH 7.5, 500 mM NaCl, 5 mM MgCl2, 1 mM DTT, 0.01% Tween 20; details: protein: recombinant; tags: N-terminal His8, Twin-Strep, HRV 3C site (tag removal not described); chain copies: 4; S6:S5 and S14:S13 duplexes with 6-nt mismatches at positions 2-7; TBL and DBL from two bRNA copies

Binder	Kd (IS621 recombinase [1]) [nM]	binding result (IS621 recombinase [2])
WT bRNA (177 nt) (structured_RNA) RNA: AGUGCAGAGAAAAUCGGCCAGUUUUCUCUGCCUGCAGUCCGCAUGCCGUAUCGGGCCUUGGGUUCUAACCUGUUGCGUAGAUUUAUGCAGCGGACUGCCUUUCUCCCAAAGUGAUAAACCGGACAGUAUCAUGGACCGGUUUUCCCGGUAAUCCGUAUUUGCAAGGUUGGUUUCACU	3 ± 1	–
WT bRNA + 38-bp tDNA 6mm + 44-bp dDNA 6mm (mixed) RNA: GGGAGUGCAGAGAAAAUCGGCCAGUUUUCUCUGCCUGCAGUCCGCAUGCCGUAUCGGGCCUUGGGUUCUAACCUGUUGCGUAGAUUUAUGCAGCGGACUGCCUUUCUCCCAAAGUGAUAAACCGGACAGUAUCAUGGACCGGUUUUCCCGGUAAUCCGUAUUUGCAAGGUUGGUUUCACU DNA 1: GCCGGGTAATACCACCAAGTCTTCTACAGATGAGCTCG DNA 2: CGAGCTCATCTGTAGGCCTGATGGTGGTATTACCCGGC DNA 3: TGCAGGCCATAAGTCATACTTGTATTATCCCTCCAGTGCAGAGA DNA 4: TCTCTGCACTGGAGGGATAATACAAGATACTGTTATGGCCTGCA	–	binds
